Assay results reported in patent US20170247677A1.
Each block holds one substance with its values, some of them ahead of it.

Experiments:
[1] = biological target: Factor Va (UniProt P12259)
[2] = biological target: FXa^I16M (human) (UniProt P00742); assay: cell-based or functional assay
[3] = biological target: FXa^I16T (human) (UniProt P00742); assay: cell-based or functional assay
[4] = biological target: FXa^V17M (human) (UniProt P00742); assay: cell-based or functional assay
[5] = biological target: FXa^V17S (human) (UniProt P00742); assay: cell-based or functional assay
[6] = biological target: FXa^V17T (human) (UniProt P00742); assay: cell-based or functional assay
[7] = biological target: wild-type Factor Xa (human) (UniProt P00742); assay: cell-based or functional assay

Sequence of UniProt P12259 (P12259 29-2224): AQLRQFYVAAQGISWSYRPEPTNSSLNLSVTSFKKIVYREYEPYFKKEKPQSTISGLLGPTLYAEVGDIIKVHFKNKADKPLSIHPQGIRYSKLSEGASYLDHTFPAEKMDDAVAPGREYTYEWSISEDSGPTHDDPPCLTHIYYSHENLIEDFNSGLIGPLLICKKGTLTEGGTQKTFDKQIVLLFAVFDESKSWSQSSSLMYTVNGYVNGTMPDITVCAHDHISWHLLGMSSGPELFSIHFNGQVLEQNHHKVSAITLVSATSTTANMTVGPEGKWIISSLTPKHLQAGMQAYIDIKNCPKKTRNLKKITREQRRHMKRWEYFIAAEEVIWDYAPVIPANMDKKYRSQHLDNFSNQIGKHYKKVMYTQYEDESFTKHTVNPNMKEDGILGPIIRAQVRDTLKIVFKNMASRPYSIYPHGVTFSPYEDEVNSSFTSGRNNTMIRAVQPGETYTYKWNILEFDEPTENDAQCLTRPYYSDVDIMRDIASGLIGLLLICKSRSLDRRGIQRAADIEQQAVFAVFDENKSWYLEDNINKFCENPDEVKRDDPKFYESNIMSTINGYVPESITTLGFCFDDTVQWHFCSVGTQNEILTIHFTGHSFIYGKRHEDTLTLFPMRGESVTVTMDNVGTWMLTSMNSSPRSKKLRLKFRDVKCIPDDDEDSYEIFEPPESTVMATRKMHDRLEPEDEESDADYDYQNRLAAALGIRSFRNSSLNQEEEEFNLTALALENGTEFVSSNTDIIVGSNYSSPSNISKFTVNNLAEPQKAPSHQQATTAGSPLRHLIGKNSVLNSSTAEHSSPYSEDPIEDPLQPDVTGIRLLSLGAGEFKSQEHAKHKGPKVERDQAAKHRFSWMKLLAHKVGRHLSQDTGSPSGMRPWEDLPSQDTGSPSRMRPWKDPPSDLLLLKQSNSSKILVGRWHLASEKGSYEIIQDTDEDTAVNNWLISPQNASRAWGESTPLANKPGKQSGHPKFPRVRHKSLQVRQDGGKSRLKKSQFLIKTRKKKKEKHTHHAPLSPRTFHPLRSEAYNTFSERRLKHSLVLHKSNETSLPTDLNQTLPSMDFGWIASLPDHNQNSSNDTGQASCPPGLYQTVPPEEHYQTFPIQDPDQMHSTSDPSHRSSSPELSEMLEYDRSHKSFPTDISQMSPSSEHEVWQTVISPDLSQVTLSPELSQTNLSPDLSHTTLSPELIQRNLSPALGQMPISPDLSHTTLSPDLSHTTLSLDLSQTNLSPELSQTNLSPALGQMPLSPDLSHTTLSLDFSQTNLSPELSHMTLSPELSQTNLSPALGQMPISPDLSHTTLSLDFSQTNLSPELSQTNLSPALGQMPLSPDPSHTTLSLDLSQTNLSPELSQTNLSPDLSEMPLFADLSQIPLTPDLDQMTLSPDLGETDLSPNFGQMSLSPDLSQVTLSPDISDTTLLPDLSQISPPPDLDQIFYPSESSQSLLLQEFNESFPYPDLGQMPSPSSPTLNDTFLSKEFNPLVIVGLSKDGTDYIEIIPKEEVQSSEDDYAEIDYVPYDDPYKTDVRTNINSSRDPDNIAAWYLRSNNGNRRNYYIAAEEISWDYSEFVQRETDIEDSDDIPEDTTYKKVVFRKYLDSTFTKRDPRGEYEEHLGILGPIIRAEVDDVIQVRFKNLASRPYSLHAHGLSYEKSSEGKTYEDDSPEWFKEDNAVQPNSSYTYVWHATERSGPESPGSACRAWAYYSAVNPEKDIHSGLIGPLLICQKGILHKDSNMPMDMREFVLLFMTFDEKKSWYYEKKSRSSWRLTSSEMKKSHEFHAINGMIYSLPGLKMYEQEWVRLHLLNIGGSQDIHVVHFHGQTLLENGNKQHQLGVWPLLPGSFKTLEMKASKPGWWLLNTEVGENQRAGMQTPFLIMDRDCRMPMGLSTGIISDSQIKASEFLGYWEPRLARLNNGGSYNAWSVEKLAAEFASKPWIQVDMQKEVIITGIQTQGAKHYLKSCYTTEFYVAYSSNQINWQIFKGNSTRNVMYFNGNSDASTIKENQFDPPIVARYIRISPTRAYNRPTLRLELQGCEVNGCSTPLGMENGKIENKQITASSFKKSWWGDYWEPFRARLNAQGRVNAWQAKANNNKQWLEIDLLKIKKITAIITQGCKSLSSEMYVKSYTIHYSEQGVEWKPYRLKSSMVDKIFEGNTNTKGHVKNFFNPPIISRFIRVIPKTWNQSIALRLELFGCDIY

Substance: FXa^V17M
- kinetics of prothrombin activation in the presence of FVa and anionic membranes (PCPS) [1]: demonstrated faster than wild-type kinetics

- Fold Difference (rate constant for inhibition by antithrombin, against wtFXa) [2]: 40 fold
- Fold Difference (rate constant for inhibition by antithrombin, against wtFXa) [3]: > 100 fold
- Fold Difference (rate constant for inhibition by antithrombin, against wtFXa) [4]: 14 fold
- Fold Difference (rate constant for inhibition by antithrombin, against wtFXa) [5]: > 100 fold
- Fold Difference (rate constant for inhibition by antithrombin, against wtFXa) [6]: 70 fold
- Fold Difference (rate constant for inhibition by antithrombin, against wtFXa) [7]: 1 fold
Substance: antithrombin III (from UniProt P01008 33-464)

Substance: FXa^I16L
- kinetics of prothrombin activation in the presence of FVa and anionic membranes (PCPS) [1]: demonstrated faster than wild-type kinetics

Substance: FXa^I16M
- kinetics of prothrombin activation in the presence of FVa and anionic membranes (PCPS) [1]: displayed similar to wild-type kinetics
